Assay results published in the DeepSol protein solubility set.

Test: soluble on expression in E. coli; label from the status in PepcDB or PDB records

Sequence	soluble on expression in E. coli
MSLGITGPTFDLTAQPGRANQPDGASVYSWGYGCNPRTVPGFLPSVNPLAGQNCPGMQLPGPTLIVHQGDVVTVTLTNNLPPAAGNTSILFPGFQVCAGTLDPNTGACSGTPTGVQGLLTREAQTGKTVTYTFIATTPGTHAYYSGTQGDLQVEMGLYGALIVLPTASGSVAVPAGCRAVSSLLPDGQPDYRNAAAAYNHSMACYDREYLFQFSEIDPAIHVQAEQQAGLPCAQPAGCMIVRTEPYHPAYFMVNGRSMPDDMDTNYAPQYPSQPYNGNPHMHPGELVLLRIIGTGRWQHPFHEHGNHVRVLARDGNLLLSQGDPSKVAGPLLFTTTTTPGLAMDGIFYWTGRGLNWDVYGHKPGDGSVCIPDANGYYTQDPTAPNYYEWCADHDKPLEAHPFGDVNSGGPVTLPDPNIFSNGAWYGGSPYLGPDATIRAVGATGTTPPTGTIANPPTTEAGFAFMWHSHNEREITTNNIFPGGMMMMMLVDPQAFVINEANEGHHHHHH	not soluble
MVDKIIFTVTPIFSIPPRGAAAVETWMYQVAQRTNFPNRIVCIKNPGYSNYTFVNDNCSIHRVGFSRIYKRLFQKWTRLDPLPYSQRILNIAHDFPITKESVIVVHNSMKLYTQIRKRAPQARVVIHMHNAFEPKLLEQNVKMIVPSLYLKKYYQSYLANADIEIVPNGIDLETYQSNFQPITRSELNISPEEKIIFYAGRIVPDKGILLLMQSFEKLAAAHKNLKLVVIGDYTEMSKSDKGAYQRNVREIAKRLKDRCIMLGSIPPEKMHCYYPLADLVVIPSQFQEPFCMVAIEAMGAGKPVLVSTRGGMTEFVKENTTGFHLKEPMTADSISSDILKTLANPELTAVAKQGQDFVFDHYSWDGVTQRFEEVIHNWFE	not soluble
MGSDKIHHHHHHMKHFKYGAIALTLISGLAACGGSGSDEPEVVVPETGFSFDADALIVNLSDEVIVKGYSTLADRGEALLQATQTLVATPTQANLEAAQSAWKAARQPWEQGESHIFGPVDSLGIDPHLDSWPLNTTDLKTVLINSSGFDAETIKGWNDDVQGFHTMEFLLFGDGMDDNVKQIDELTANERDYLMGLAEVFRDYTKQLADAWLVSHDGQSGKAYGELLKSPGVDGNTFYSSQVGVLEELIKGMIGIVDEVGNGKIADPFGGSLASADTSKVESQYSWNSLTDFSDNIIGVRNVYQGEFTGEADKQGIIDFVRAADSELASRIAAEIDAAILQIHAIEGTDKMPFRQAIKDEAGRARIQKAVDALATLQASLENQVLPLLKEWKV	not soluble
MSLEALLSEDVKIIASALKAAIDKDRKSTSKREAETGIRYYNHENDIMNNRIFYVDDEGVLREDKYASNVRIPHGFFPEIVDQKTQYLLSNPVEYETENEELKEYLAEYYNSEFQVVLQELVEGSSQKGFEYVYARTNAEDRLCFQVADSLNVFGVYNEYNELQRICRHYITEIEKDGETVDIHHAEVWTDQNVYFFVAEDNKDYELDEAEPINPRPHVLAVDSDNESLLQRSYGQIPFYRLSNNKQETTDLKSIKALIDDYDLMNCFLSNNLQDFAEAIYVVSGFQGDDLSKLRQNVKSKKVVGTGSDGGLDVKTVTIPTEGRKTKMEIDKENIYKFGMAFDSTQVGDGNITNIVIKARYTLLNMKANKTEARLRALLEWMNKLVIDDINRRYTKAFDPTEVSFTFTREVMVNETDIVNNEKTEAETRKIILESILQVAPRLDDDNVLRLICEQFDLDWEDVKEALEEAEYTQGLTDNTDEEETAVTPNVPTQQMAEGATGSTESQLPGEGHHHHHH	not soluble
MTIFQFPQDFMWGTATAAYQIEGAYQEDGRGLSIWDTFAHTPGKVFNGDNGNVACDSYHRYEEDIRLMKELGIRTYRFSVSWPRIFPNGDGEVNQEGLDYYHRVVDLLNDNGIEPFCTLYHWDLPQALQDAGGWGNRRTIQAFVQFAETMFREFHGKIQHWLTFNEPWCIAFLSNMLGVHAPGLTNLQTAIDVGHHLLVAHGLSVRRFRELGTSGQIGIAPNVSWAVPYSTSEEDKAACARTISLHSDWFLQPIYQGSYPQFLVDWFAEQGATVPIQDGDMDIIGEPIDMIGINYYSMSVNRFNPEAGFLQSEEINMGLPVTDIGWPVESRGLYEVLHYLQKYGNIDIYITENGACINDEVVNGKVQDDRRISYMQQHLVQVHRTIHDGLHVKGYMAWSLLDNFEWAEGYNMRFGMIHVDFRTQVRTPKESYYWYRNVVSNNWLETRR	soluble
MGSDKIHHHHHHPAAVKKIIETGQTDNRVMHQLDILTNRFGGRVIGSDAYENAAEWMMREYKRWGIDVRLEEAGELPVGFNRGPWFGRLIGGDQAMDLHFVTPSYTSGTKGLQRGHVLIEPRTQEELDRMKHQLKGAWVLISGENVGWPVDRSAKGDSLRAAIKAENIEIEKQNAALMEENWSKGTKHAMKPLREMPGLFYKEMCEAGALGFIQSAPVPLRALYDRALLNDPHTTFDNLPEVCDIKLDEHQYKIIKQMVKERRNFWLEFDIRNHFKLGPVKYHNVVASIKGTKYPDEYVIISGHLDSYDVATGGIDCGTGIGPMMEAARMIALSGAKPKRTILFVAFAGEEFGLLGAKAYVKTHAKELGKIANLFNRDGGPTPPVGISVPQAMYDDFVEVCKPVKEIRADYPFEVKVAKPFKRPTQSGGTDASVFAVEGVPTFGFNTQDIKGYNFSYGEIWHTERDLYTKNIPEYQEHAATVTAVVALGIANLSKQLSREGMHKK	not soluble
SLILHAQAKHGKPGLPWLVFLHGFSGDCHEWQEVGEAFADYSRLYVDLPGHGGSAAISVDGFDDVTDLLRKTLVSYNILDFWLVGYSLGGRVAMMAACQGLAGLCGVIVEGGHPGLQNAEQRAERQRSDRQWVQRFLTEPLTAVFADWYQQPVFASLNDDQRRELVALRSNNNGATLAAMLEATSLAVQPDLRANLSARTFAFYYLCGERDSKFRALAAELAADCHVIPRAGHNAHRENPAGVIASLAQILRF	soluble
SRENLGRIQFSVGYNFQESTLTVKIMKAQELPAKDFSGTSDPFVKIYLLPDKKHKLETKVKRKNLNPHWNETFLFEGFPYEKVVQRILYLQVLDYDRFSRNDPIGEVSIPLNKVDLTQMQTFWKDLKP	soluble
MRLRKKPWARPALEACSFFVINPTEYKGKWREVFGNSNEIWLELGCGKGGFISKLASTNPDKNFIAVDIKDEVLALAMKKIENEYALIGAETKNIRLMAHEIMLIHRMLDENDQIGRIFINFCNPWPKNRHKARRLTHPNQLNQYRTFLAPNGQIWFKTDDTMLFQDSIKYFEQCNFNIVYLTEDLHASGFEGNIETEHERMFLEQGCKIKFLIAEKK	soluble
MGSSHHHHHHGGTGENLYFQGGSGLRRTEIALKKGWTHNPGHTRRGGKNLAWRPKISDAKLSQFVPLALVHPRRHPNNWQERQFNALGYTKWPKDIGFYNAGDNFEVTPEAAWRLYVHARDEPYWGKLHCEKTIITLLPVVEKAPKENMERVLDVFRHYLKRYGADHYIYNAVMQAAAFAKNYEQAEQLFKEMETLGLEPNAQSYVNMMLAAKLCGLPPEKSEAYFKRAVKDGAMQSVMRMDTEFRMWMDQLDRLGSFTASSGYLSVNEEGAKPMPRDMWAIWGWHRSESKFISRRDLIMQQVRARVHSGKELVGTVYTKTRRQPWAKFNGMLRHDYNGPSYRAPTIFPDAPEYTNEAGHKAF	soluble
MSLQSFRVQCPTSTITHNPNSNFPGGIKCQQISGGDGYSTMADGVQTYMFSFGPLSGLADIRNGLPGTQPASIFNTLGNPYTDTTFNGAVGLTPDPDSVPPNQIDGHVDPRPIMDIGVMNGNIPAPLMAIDEDDEFFLTLTNVGMIMRPDLFERHTVHFHGYPNASSFYDGVPDASVAINIGGSFTYYYLAPDAGTYFWHCHITPPEHLQMGMVGQIYVRPRQDRVPAGAALYTALVGQQADLRTACGTTDVLCSTPLPPTNAVKRLNNKNGTPTLYAYNDGDGSTAYDVEYPIQIHGFDPNFHFIGMTFNPEPFTDMKDKYFMLNGRSYPDTITPGPMTTPSSDGALHYSQPLPTVINIPAGGKALLRISNLDVTEYQTLASLGIPMHVIGINARLLRDMAGGDMTYYANSITLGGGESLDVLLDASDTSSYPRGSTFYLYTPNLDHLSNDAENFGGLMTEVHICGAVDPATKQCTEGHHHHHH	not soluble
MGSDKIHHHHHHMSLQRPDEKLKSDVLIGVGLRHQHFTEALTTPSNIDFVEVHSENFFAQGGATQSVLAQASEKYAISLHSTAMGLGSAQGVPSHYLQKLKQLASTCNPILMSDHACFSWSQLKGQQVHAGDLLPLAYSEQTLMVLSHNIDRVQQSLGRSLLVENLSAYIQYSHACMPETEFLVRLAELTGCKLLVDLNNIIVTANNINAAQPLDYAQQWLAEIPTDMVGEIHLAGFTEVKEGELIIDDHSQAVSSQGWQLYRSALERFGKIPTLVEWDNNLPSWHTLVAEADKARMIAKQVFGDNNSSKITTAMTGLESEFIHE	not soluble
MSLGRMFGTDGVRGIANKELTAELAYRLGRAGAYVLTNETHKPKILVGMDTRISGDMLEAALVSGILSVGAEAVCVGIVPTPAVAYLTRKYKADAGVVISASHNPVEYNGIKFFDAKGYKLSDNLEDEIQKIIESDFEGVPLPTGESVGRKVVEESAEEDYIKFAKSTIGTDLKGMKIALDCANGAAYKTAVKTFRELGAQVTVINNDPDGININCNCGSTHPEELMDYVVKKNCDLGLAFDGDADRCLAVDEKGNLIDGDFIMAICGKYLKDKGELHKDVVVVTVMSNMGLFLALDKANIKTVKTKVGDRYVLEEMLKEGYKLGGEQSGHIIFLDYNTTGDGLVTALKICSIVKESRKTLSKLASIMHKLPQVLANAKVPNNKKDIYLEDKEISDEIKKIEEELHGKGRVLIRPSGTEPLVRVMLEGEDQDRLNTLAHGLAELIEKKANEGHHHHHH	soluble
SKLNQNTMLVGKKVVLVPYTSEHVPRYHEWMKSEELRHLTASEQLTLQQEYEMQCSWCEDEDKCTFIVLDAEKWQAQPRPPEESCMVGDVNLFLTDLEDPTLGEIEVMIAEPSYRRQGLGTEASLLIMSYGVTKLGLTKFEAKIGQENEPSIRMFQKLHFKQVAMSNVFQEVTLRLAVSEPERKWILEQTSHMEERPYRTRKAEPVTATLSEQKSWNCPLPRPDGCMGDTSAVSSVCARLS	soluble
SNAMNVWQVVGYKHSGKTTLMEKWVAAAVREGWRVGTVKHHGHGGEPARPEGVDSVRHERAGAVATAVEGDGLLQLHLRRPLWRLDDVLALYAPLRLDLVLVEGYKQERHPKVVLVRSEEDWASLQHLANIRAVIAWEPLEGPLAHPVFSLADDDEYIPWLMNEVRTRT	soluble
MSLAANMYRVGDYVYFENSSSNPYLIRRIEELNKTANGNVEAKVVCFYRRRDISSTLIALADKHATLSVCYKAGPGADNGEEGEIEEEMENPEMVDLPEKLKHQLRHRELFLSRQLESLPATHIRGKCSVTLLNETESLKSYLEREDFFFYSLVYDPQQKTLLADKGEIRVGNRYQADITDLLKEGEEDGRDQSRLETQVWEAHNPLTDKQIDQFLVVARSVGTFARALDCSSSVRQPSLHMSAAAASRDITLFHAMDTLHKNIYDEGHHHHHH	not soluble
MGSDKIHHHHHHMTRVEELLSQIKNLKTEKNAIILGHNYMEYSVQLVSDFTGDSYDLAVKAMKTNAKIILFAGVYFMAEQASALNPNKKVLSPDPNAGCTLSDSLDVKTLQEYKEKYPNAPVVLYINTSIYAKALADYIVTSSTAVKVVQKLNADTILFGPDANLANYVQQKVPNKKIIKVPPNGRCIVHANYTKQLVELARKKYPNALLMAHPEAPLEILESADFVGSTNQMIQFSKENKNEEFIVATEIGMINALKIKNPSKKFYPLVTTEACACARCPYMNMINLEKVKRSLEEEVYEVKVPEDIAERVKRAFENTMKLL	not soluble
MEDLALRPKTLDEYIGQERLKQKLRVYLEAAKARKEPLEHLLLFGPPGLGKTTLAHVIAHELGVNLRVTSGPAIEKPGDLAAILANSLEEGDILFIDEIHRLSRQAEEHLYPAMEDFVMDIVIGQGPAARTIRLELPRFTLIGATTRPGLITAPLLSRFGIVEHLEYYTPEELAQGVMRDARLLGVRITEEAALEIGRRSRGTMRVAKRLFRRVRDFAQVAGEEVITRERALEALAALGLDELGLEKRDREILEVLILRFGGGPVGLATLATALSEDPGTLEEVHEPYLIRQGLLKRTPRGRVATELAYRHLGYPPPVGPLLEP	soluble
